Numbering of substitutions follows the chain as printed.
Legend:
[1] = biological target: T1, WT GPRC5D expressed on HEK293T cells (Homo sapiens, UniProt Q9NZD1); test: flow cytometry on cells; HEK293T cells transiently transfected with WT or mutated GPRC5D, incubated with purified IgG150_18 at different concentrations for 60 min, detected with goat anti-human IgG (Fc specific)-FITC at 4 °C; % of total, normalized to expression level; conditions: one partner purified
T1 construct: human GPRC5D, UniProt Q9NZD1; also called GPRC5D-WT; source: HEK293T, transiently transfected, on cells

[2] = biological target: the molecule itself; test: cryo-EM structure; GPRC5D and scFv150_18 co-expressed in Hi5 insect cells, complex purified by TALON IMAC and Superdex 200 in LMNG/CHS, 20 mM HEPES pH 7.4, 100 mM NaCl; C2 symmetry, 3.34 Å

B1: IgG150-18 with a single mutation at Y228 (HCDR2) (antibody, V domains shown)
VH: QVQLVESGGGLVHPGGSLRLSCAASGFTFRSHSMNWVRQAPGKGLEWVSSISSDSTYTAYADSVKGRFTISRDNAKNSLYLQMNSLRAEDTAVYYCARSGGQWKYYDYWGQGTLVTVSS
VL: SSELTQDPAVSVALGQTVRITCQGDSLRSYYASWYQQKPGQAPVLVIYGKNNRPSGIPDRFSGSSSGNTASLTITGAQAEDEADYYCNSRDSSGNPPVVFGGGTKLTVL
notes: as the heavy chain variable domain of m3 (from scFv m2, PDB 8YZK) with a single mutation at Y228 (HCDR2; number as printed for the scFv); human IgG heavy chain constant region; as the light chain of m3; Residue number counts as in the scFv structure, not on the IgG heavy chain; also called Y228 mutant antibody; source: HEK-293F, transfected, purified (protein A, Superdex 200)
B1: binds [1].

B2: human GPRC5D (residues 1-298) with N-terminal BRIL fusion, cryo-EM construct (receptor, UniProt Q9NZD1 1-298, looked up)
chain: MYKDCIESTGDYFLLCDAEGPWGIILESLAILGIVVTILLLLAFLFLMRKIQDCSQWNVLPTQLLFLLSVLGLFGLAFAFIIELNQQTAPVRYFLFGVLFALCFSCLLAHASNLVKLVRGCVSFSWTTILCIAIGCSLLQIIIATEYVTLIMTRGMMFVNMTPCQLNVDFVVLLVYVLFLMALTFFVSKATFCGPCENWKQHGRLIFITVLFSIIIWVVWISMLLRGNPQFQRQPQWDDPVVCIALVTNAWVFLLLYIVPELCILYRSCRQECPLQGNACPVTAYQHSFQVENQELSR
notes: human GPRC5D, UniProt Q9NZD1, residues 1-298; Order at the N-terminus as printed: haemagglutinin signal peptide, Flag tag, BRIL, then GPRC5D 1-298, HRV 3C site, 10x His; Membranes were treated with iodoacetamide before solubilisation; also called hGPRC5D; GPRC5D homodimer; not shown: BRIL (thermostabilized E. coli apocytochrome b562RIL), N-terminal, kept; 10x His, C-terminal, kept
B2 was tested, and the “stoichiometry N” value [2] was 2.

B3: IgG150-18 (scFv150-18 cloned into human IgG format) (antibody, V domains shown)
VH: B1 VH with A59Y
VL: B1 VL
notes: heavy chain variable domain as in the scFv m2 (PDB 8YZK); human IgG heavy chain constant region; light chain variable domain as in the scFv m2 (PDB 8YZK); human light chain constant region; also called antibody150_18; scFv150_18 in its IgG format; source: HEK-293F, transfected, purified (protein A, Superdex 200)
B3 gave an EC50 [1] of ~4.6 nM.

Reference: article PMC11187071, “The binding mechanism of an anti-multiple myeloma antibody to the human GPRC5D homodimer” (Nature Communications, 2024)
